Experimental data from the supplement of paper PMC10567573.

B1: C1orf55 (parent)
chain: FTSPDYQQQCHEMAERLEDSVLKG
B2: RTP4 (parent)
chain: TYWEHWTSQGQVRMRLFGQRCQKC

Variants of: B1
Assay: protein stability index of a GFP-peptide fusion (GPS, HEK-293T) (PSI 1-6); higher = more stable
Details: c terminus: a fixed tail appended
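Further: lentivirally expressed fusions sorted by FACS into six bins by GFP to DsRed ratio, PSI derived from sequencing read proportions per bin multiplied by bin number.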

Row | Variant | protein stability index
1 | G24D | 1.91
2 | G24M | 2.44
3 | G24E | 2.74
4 | G24T | 2.26
5 | G24S | 1.89
6 | G24Q | 2
7 | G24R | 1.87
8 | G24H | 1.52
9 | G24P | 2
10 | G24N | 2.15
11 | G24A | 1.98
12 | G24K | 2.49
13 | G24C | 2.52
14 | G24F | 2.01
15 | G24W | 1.78
16 | G24V | 1.72
17 | G24L | 1.87
18 | G24Y | 1.8
19 | G24I | 1.5
20 | K23Y | 1.99

Variants of: B2
Assay: as above
Details: c terminus: a fixed tail appended

Row | Variant | protein stability index
21 | R15V | 1.64
22 | R15E | 2.07
23 | R15I | 2.12
24 | R15S | 1.21
25 | R15T | 1.7
26 | R15H | 1.85
27 | R15P | 1.87
28 | R15L | 1.97
29 | R15D | 2.71
30 | R15C | 3.05
31 | R15N | 2.1
32 | R15A | 2.06
33 | R15M | 2.09
34 | R15G | 1.6
35 | R15F | 1.75
36 | R15K | 2.31
37 | R15Q | 1.86
38 | G10R | 1.69
39 | G10Q | 1.8
40 | G10S | 2.39
41 | G10P | 1.91
42 | G10H | 1.76
43 | G10L | 1.89
44 | G10W | 2.07
45 | G10D | 2.21

Row | Variant | protein stability index
46 | G10F | 2.53
47 | G10T | 2.27
48 | G10M | 1.68
49 | G10I | 2.47
50 | G10C | 1.87
51 | G10A | 1.33
52 | G10Y | 1.92
53 | L16V | 1.81
54 | L16W | 1.62
55 | L16K | 1.25
56 | L16C | 2.99
57 | L16F | 2.22
58 | L16S | 1.75
59 | L16D | 2.85
60 | L16A | 1.6
61 | L16P | 2.13
62 | L16N | 2.43
63 | L16H | 2.34
64 | L16Y | 2.61
65 | L16G | 2.13
66 | L16T | 1.14
67 | L16Q | 1.79
68 | L16R | 1.91
69 | L16I | 1.62
70 | H5M | 1.53

Row | Variant | protein stability index
71 | H5D | 2.07
72 | H5Y | 1.58
73 | H5A | 2.43
74 | H5T | 2.12
75 | H5E | 2.19
76 | H5W | 1.16
77 | H5P | 3.28
78 | H5R | 1.38
79 | H5G | 1.62
80 | H5Q | 2.43
81 | H5N | 1.59
82 | G18T | 1.91
83 | G18E | 2.24
84 | G18I | 2.39
85 | G18M | 1.36
86 | G18W | 1.74
87 | G18P | 1.81
88 | G18H | 2.23
89 | G18F | 1.87
90 | G18Y | 2.41
91 | G18N | 2.14
92 | G18S | 1.46
93 | G18K | 1.86
94 | G18D | 2.04
95 | G18Q | 1.4

Row | Variant | protein stability index
96 | G18R | 2.02
97 | G18C | 2.03
98 | G18A | 1.96
99 | R13E | 1.74
100 | R13P | 1.92
101 | R13W | 2.11
102 | R13I | 2.76
103 | R13S | 1.59
104 | R13D | 2.04
105 | R13G | 1.65
106 | R13C | 2.78
107 | R13H | 2.4
108 | R13L | 1.69
109 | R13N | 1.54
110 | R13V | 1.65
111 | Y2C | 2.69
112 | Y2D | 1.66
113 | Y2I | 1.74
114 | Y2G | 3.25
115 | Y2E | 2.98
116 | Y2T | 2.46
117 | Y2W | 1.53
118 | Y2N | 2.49
119 | Y2M | 2.39
120 | Y2H | 1.99

Row | Variant | protein stability index
121 | Y2P | 2.1
122 | Y2A | 2.35
123 | Y2F | 1.32
124 | Y2K | 2.19
125 | F17Y | 1.55
126 | F17A | 1.87
127 | F17D | 2.01
128 | F17W | 2.44
129 | F17E | 2.29
130 | F17G | 2.31
131 | F17S | 2.27
132 | F17C | 2.57
133 | F17L | 1.85
134 | F17M | 2.37
135 | F17I | 1.67
136 | F17P | 2.38
137 | F17N | 2.9
138 | F17Q | 2.26
139 | F17T | 2.02
140 | F17K | 1.92
141 | F17H | 2.79
142 | W3H | 3.61
143 | W3G | 1.63
144 | W3C | 5.05
145 | W3N | 2.98

Row | Variant | protein stability index
146 | W3T | 3.21
147 | W3Q | 2.51
148 | W3Y | 1.54
149 | W3E | 1.77
150 | W3I | 1.69
151 | W3A | 2.07
152 | W3K | 2.96
153 | W3R | 1.73
154 | W3D | 2.88
155 | W3F | 1.75
156 | W3M | 2.28
157 | W3P | 2.25
158 | T1H | 2.48
159 | T1S | 2.18
160 | T1W | 2.35
161 | T1D | 1.82
162 | T1C | 2.67
163 | T1L | 1.88
164 | T1G | 2.81
165 | T1V | 1.86
166 | T1Q | 2.15
167 | T1E | 1.36
168 | T1A | 1.19
169 | T1Y | 2.21
170 | T1P | 2.27

Row | Variant | protein stability index
171 | T7K | 2.04
172 | T7H | 1.96
173 | T7V | 1.93
174 | T7C | 3.39
175 | T7Q | 1.77
176 | T7N | 1.76
177 | T7R | 1.98
178 | T7P | 2.27
179 | T7D | 1.86
180 | T7L | 1.61
181 | T7Y | 1.2
182 | T7W | 2.06
183 | T7S | 1.79
184 | T7F | 1.21
185 | T7A | 1.53
186 | E4P | 1.49
187 | E4H | 1.71
188 | E4C | 1.15
189 | E4Q | 3.01
190 | E4M | 2.86
191 | E4G | 2.45
192 | E4N | 1.1
193 | E4I | 1.77
194 | E4K | 3.32
195 | Q9A | 1.95

Row | Variant | protein stability index
196 | Q9I | 2.08
197 | Q9R | 2.24
198 | Q9E | 2.02
199 | Q9P | 1.6
200 | Q9G | 1.27
201 | Q9N | 2.08
202 | Q9D | 1.4
203 | Q9W | 1.69
204 | Q9F | 1.77
205 | Q9C | 1.48
206 | Q9K | 2.17
207 | Q9H | 1.18
208 | Q9V | 2.5
209 | Q9T | 1.8
210 | W6D | 3.38
211 | W6M | 1.52
212 | W6S | 2.13
213 | W6Q | 2.65
214 | W6A | 2.4
215 | W6K | 1.6
216 | W6C | 2.25
217 | W6V | 2.32
218 | W6G | 1.75
219 | W6N | 2.11
220 | W6T | 1.94

Row | Variant | protein stability index
221 | W6P | 2.07
222 | W6E | 1.95
223 | W6Y | 2.05
224 | W6R | 2.7
225 | W6L | 1.61
226 | W6F | 1.39
227 | Q19T | 1.05
228 | Q19C | 2.9
229 | Q19A | 1.98
230 | Q19Y | 1.03
231 | Q19G | 1.45
232 | Q19H | 2.6
233 | Q19I | 2.31
234 | Q19R | 1.46
235 | Q19V | 2.23
236 | Q19W | 2.6
237 | Q19P | 1.25
238 | Q19K | 1.8
239 | Q19E | 1.62
240 | Q19S | 1.61
241 | Q19N | 1.58
242 | Q19L | 1.04
243 | Q19F | 1.66
244 | Q19D | 1.97
245 | V12T | 2.09

Row | Variant | protein stability index
246 | V12E | 2.19
247 | V12K | 1.57
248 | V12W | 3.46
249 | V12C | 2.42
250 | V12I | 1.61
251 | V12Q | 1.51
252 | V12D | 1.7
253 | V12A | 1.04
254 | V12R | 1.76
255 | V12H | 2.21
256 | V12N | 1.65
257 | V12P | 1.98
258 | V12Y | 2.65
259 | C21A | 1.94
260 | C21I | 1.98
261 | C21M | 1.7
262 | C21G | 2.46
263 | C21D | 2.75
264 | C21H | 2.23
265 | C21E | 2.46
266 | C21K | 2.45
267 | C21F | 1.39
268 | C21N | 2.15
269 | C21L | 2.4
270 | Q11Y | 1.58

Row | Variant | protein stability index
271 | Q11L | 2.02
272 | Q11S | 2.59
273 | Q11I | 2.31
274 | Q11D | 2.41
275 | Q11G | 2.64
276 | Q11A | 1.84
277 | Q11H | 1.65
278 | Q11K | 2.48
279 | Q11N | 2.01
280 | Q11R | 2.6
281 | Q11M | 2.4
282 | Q11C | 3.14
283 | Q11P | 2.14
284 | S8Y | 1.82
285 | S8V | 1.67
286 | S8P | 1.66
287 | S8G | 2.05
288 | S8E | 1.76
289 | S8T | 3.23
290 | S8L | 1.23
291 | S8A | 3.23
292 | S8C | 1.79
293 | S8R | 1.89
294 | S8N | 1.32
295 | S8H | 2.56

Row | Variant | protein stability index
296 | S8I | 2.05
297 | S8Q | 1.77
298 | S8D | 1.87
299 | S8M | 3.02
300 | S8K | 2.5
301 | R20G | 1.93
302 | R20F | 1.82
303 | R20D | 2.47
304 | R20K | 1.86
305 | R20Q | 1.24
306 | R20Y | 1.97
307 | R20W | 2.49
308 | R20E | 1.57
309 | R20P | 1.78
310 | R20L | 1.75
311 | R20C | 2.72
312 | R20S | 1.65
313 | R20T | 2.22
314 | R20I | 1.03
315 | R20M | 2.69
316 | R20H | 1.63
317 | R20N | 1.34
318 | M14Y | 1.9
319 | M14K | 2.9
320 | M14D | 2.05

Row | Variant | protein stability index
321 | M14N | 1.69
322 | M14E | 2.36
323 | M14L | 1.39
324 | M14H | 2.18
325 | M14A | 2
326 | M14G | 2.51
327 | M14C | 2.58
328 | M14V | 1.89
329 | M14Q | 1.73
330 | M14W | 1.77
331 | M14R | 2.29
332 | M14F | 1.63
333 | M14S | 1.5
334 | M14T | 1.84
